The target of this experiment is Thermus thermophilus RodA (FLAG-3C-RodA) (Thermus thermophilus) (UniProt Q5SIX3). Kind of experiment: crystal structure.

For “Thermus thermophilus PBP2 (PBP2-3C-PrtC) (enzyme)”, the stoichiometry N (PBP2 per RodA) worked out at 1.

Source of the values: PMC7540724.
